{"source": "a protein production outcome set (Wang et al. 2014)", "assay": "label from the status in PepcDB records"}
{"sequence": "MGSTRKGMLNVLIAAVLWGSSGVCAQYIMEQSQMSSQFLTMTRLIFAGLILLTLSFVHGDKIFSIINNHKDAISLLIFSVVGALTVQLTFLLTIEKSNAATATVLQFLSPTIIVAWFSLVRKSRPGILVFCAILTSLVGTFLLVTHGNPTSLSISPAALFWGIASAFAAAFYTTYPSTLIARYGTLPVVGWSMLIGGLILLPFYARQGTNFVVNGSLILAFFYLVVIGTSLTFSLYLKGAQLIGGPKASILSCAEPLSSALLSLLLLGITFTLPDWLGTLLILSSVILISMDSRRRARKINRPARHK", "values": [{"measurement": "protein production", "value": "failed"}]}
{"sequence": "MGSVPMGHKRISFHIVQTTRSGDRSASRTSVEEASDQGPSPWTTADSAIFQLRWSCVWRRAVSTSANIEDGADAAFVASPPPFGAGVADLYQALLVPILFEPYALEMAIVAERSKPVSVLEVAAGTGALTRALRAKLDPAAEIVATDLSQAMIDVGAPSVTMSRTHWMHADAQDLPFAPLMFDLVVCQFGVMFFPDKPKAYHEAKRVLRSGGRLLFSTWDSLAANDFARCVDECLTGLFPSDPPDFLGRLPYSYFDPSLIKAEVSSAGFKAVSCERLELASIAATSQDVATAFCRGTPLSGEIEWRAPERMSEIVDEVAERVASRYGARPCGSMSALVVSGRAP", "values": [{"measurement": "protein production", "value": "failed"}]}
{"sequence": "MGSVSNQQFAGGCAKAAEEAPEEAPEDAARAADEPQLLHGAGICKWFNVRMGFGFLSMTARAGVALDPPVDVFVHQSKLHMEGFRSLKEGEAVEFTFKKSAKGLESIRVTGPGGVFCIGSERRPKGKSMQKRRSKGDRCYNCGGLDHHAKECKLPPQPKKCHFCQSISHMVASCPLKAQQGPSAQGKPTYFREEEEEIHSPTLLPEAQN", "values": [{"measurement": "protein production", "value": "failed"}]}
{"sequence": "MGSVSTGNAGSGTVGTSTTSRADVMTFQPSSLPVSYVGETYNVQVGVTGGVGPYGYRLTAGTLPPGLKFAGGALSGTPTKAGSYSFAIQATDANLSTRVQEYTMNVDALPPLALKPTLPPGEIRGETRIPVTIQAPRAVRAARLSWDLGKDVQVTRVQPADAGSVVFWQQRGSVLTVDLGFRTVPRPDARIALITVKPAKAVTLKADALGYEARDGSGKMLVDKKRPGSEPVKPAEQPGDPKVDPKAADQKATDQKATDPKTVDPKTVTPADTVEGGPLPSPALPTPSLPPTLPPVTTPPANTPPVPTPTPPANQPAPAPAPQPAPAPQPTPPSGTGGALEHHHHHH", "values": [{"measurement": "protein production", "value": "failed"}]}
{"sequence": "MGTALVYHEDMTATRLLWDDPECEIECPERLTAALDGLRQRGLEERCLCLSACEASEEELGLVHSPEYIALVQKTQTLDKEELHALSKQYDAVYFHPDTFHCARLAAGAALQLVDAVLTGAVHNGLALVRPPGHHSQRAAANGFCVFNNVALAAKHAKQKYGLQRILIVDWDVHHGQGIQYIFNDDPSVLYFSWHRYEHGSFWPFLPESDADAVGQGQGQGFTVNLPWNQVGMGNADYLAAFLHVLLPLAFEFDPELVLVSAGFDSAIGDPEGQMQATPECFAHLTQLLQVLAGGRICAVLEGGYHLESLAQSVCMMVQTLLGDPTPPLLGLMVPCQSALESIQSVQTAQTPYWTSLQQNVAPVLSSSTHSPEERSLRLLGESPTCAVAEDSLSPLLDQLCLRPAPPICTAVASTVPGAALCLPPGVLHQEGSVLREETEAWARLHKSRFQDEDLATLGKILCLLDGIMDGQIRNAIATTTALATAATLDVLIQRCLARRAQRVLCVALGQLDRPLDLADDGRILWLNIRGKDAAIQSMFHFSTPLPQTTGGFLSLILGLVLPLAYGFQPDMVLMALGPAHGLQNAQAALLAAMLRSPVGGRILAVVEEESIRLLARSLAQALHGETPPSLGPFSKATPEEIQALMFLKARLEARWKLLQVAAPPP", "values": [{"measurement": "protein production", "value": "failed"}]}
{"sequence": "MGTARTLTAAGGEPAFRGNDRLLLGIILGVLTFWLFAQTTLNIAPDMRRDLGTGESLMNIAVALTALFSGIFIVVMGGLADRVGRVRMVRLGFLASIAGSLLVGLAPAGGLAVAFLLAGRALQGLSGACIMPASLALVKAYWDGAERQRAISLWSIGSWGGSGVCSLFGGLVTQHLGWRWIFFASVLVAIAGLLLLRGTPESRAEGGAADYRFDLAGVLTFMVAMVALQVVVTQGNQLGWTSPASLGLVAATIVFGWLFLRIERRARSPFIDFGLFRSPTYTGATISNFLLNGVAGTLIVSLQLVQVGGGMSAQRAGVLTLGYAVAIIAFIRVGEKLLRRFGARRPMLWGCAITGASILLLAPSNVMLARYEVMAVIGYTLFGVGLAFYATPSTDAALSNLPASQAGAGSGLYKMASSLGAAFGVAISAAIFTALRAAPQSVSWLEGVITFQGRQDNLAVREAAIIALGFNELMVVVAIVSIVLTIPEGERRQGA", "values": [{"measurement": "protein production", "value": "failed"}]}
{"sequence": "MGTLGRAIYTVGNWIRGTGQALDRVGSLLQGSHRIEEHLSRHRTLMNVFDKSPLVDKDVFVAPSASVIGDVQIGKGSSIWYGCVLRGDVNNISVGSGTNIQDNTLVHVAKTNISGKVLPTLIGDNVTVGHSAVIHGCTVEDDAFVGMGATLLDGVVVEKHAMVAAGSLVKQNTRIPSGEVWGGNPAKFMRKLTDEEIVYISQSAKNYINLAQIHASENSKSFEQIEVERALRKKYARKDEDYDSMLGITRETPPELILPDNVLPGGKPVAKVPSTQYF", "values": [{"measurement": "protein production", "value": "failed"}]}
{"sequence": "MGTSKYSPEFRADAVALYHASPGGTYASVAKDLGVNHETLRTWVRDAEQAGRPGAVEATAMDKENRQLRARVKELELEREILRRAAKYFAAETSWLEHHHHHH", "values": [{"measurement": "protein production", "value": "not failed"}]}
{"sequence": "MGTSSDPIQDGSDEQQKRSEIYTYEAPWHIYAMNWSVRRDKKYRLAITSLLEQYPNRVEIVQLDESNGEIRSDPNLSFEHPYPPTKTIFIPDKECQRPDLLATSSDFLRLWRIADDHSRVELKSCLNSNKNSEFCGPLTSFDWNEAEPRRIGTSSTDTTCTIWDIEREAVDTQLIAHDKEVFDIAWGGVGVFASVSADGSVRVFDLRDKEHSTIIYESSEPDTPLVRLGWNKQDPRYMATIIMDSAKVVVLDIRFPALPVVELQRHQASVNAIAWAPHSSCHICTAGDDSQALIWDISSMGQHVEGGLDPILAYTAGAEIEQLQWSSSQPDWVAIAFSTKLQILRV", "values": [{"measurement": "protein production", "value": "failed"}]}
{"sequence": "MGTTEKSGIKEIIIQGLTRAGKPFRPSDWVDRMCSTYASFGADRKLRYSPYLKPRVIEGVRCLAVDLKLKDTNPEGFNQLMHFATENQLNILDAEGNSIDAAQVTEI", "values": [{"measurement": "protein production", "value": "not failed"}]}
{"sequence": "MGVANLRVMHYVHKDKAFAYWSCTCVYAPESRYCSEEHKKMALAEREYELPHNFANVHLHTNMEDLVLPKIISYLRDPQLGIIEIPNLQYIDDVFNVTPTEQPDMFSTNLDEREEFNIWLFMMIS", "values": [{"measurement": "protein production", "value": "failed"}]}
{"sequence": "MGVDMELKVEASLREARTLLAAKQYSQAANVAHSLFCTCHKFNLQIEKASVLLLLAEIHKKSGNAVLGLPYALASISFCQSFNLDLLKASATLTLAELWLGLGSNHTKRALDLLHGAFPMILGHGGLELRARAYIFEANCYLSDPSSSVSTDSDTVLDSLRQASDELQALEYHELAAEASYLMAMVYDKLGRLDEREEAASLFKKHIIALENPQDVEQNMA", "values": [{"measurement": "protein production", "value": "failed"}]}
{"sequence": "MGVDNFSTTKKMFTWEVPGERVITLMTAGNLATTQALISLLEERSKTPSERSPSILERPTMFEVARLVGATLKEVIADTAGTGQVASSQFKASVIVGGQVKGGLPTLFLIYPEGNFIEVTEDSPFFQIGEAKYGKPILVRAYDPDLSFEDTIRLLMVSFDSTIKANLSVGLPLDLQVYANDSFAIKEQSRVEADDAYFQSISERWGDALRKALSDLPPYKSLLEHHHHHH", "values": [{"measurement": "protein production", "value": "failed"}]}
{"sequence": "MGVIVPGNSSPVPALSAGRSTVEGYDPKLHDPFFDGVSQQLADKGFITAAADDLITWARTGSLMWMTFGLACCAVEMMQASMPRYDLERYGFAPRASPRQSDVMIVAGTLTNKMAPALRKVYDQMPEPRYVISMGSCANGGGYYYYSYSVVRGCDRVVPVDIYVPGCPPTAEALVYGVLQLQKKIRRTGTIER", "values": [{"measurement": "protein production", "value": "failed"}]}
{"sequence": "MGVLHALREEEGAARARFEEALTHDAGHYRARMNIGNLDLEAGRLPEAEAAYREVLKLAPEYDGAHHNLGVALRRQGKLYESVGSIRKAQRLGVSGARAAAKEDMQEQLRLNPHLRWIRAAIFIGVLLLLGVLLWLNRGRA", "values": [{"measurement": "protein production", "value": "failed"}]}
{"sequence": "MGVLRPAAPITGTPNTRLTPVRRRLPTAEAKPTPRFNTPTNKLPEQMSSESPRNPLLDTWTETSSHMFNSVVAANRAAFAAFGVQQEEENGVTPAERIEPDEDLPEWHVSISEEHPGRLGVGDHVDFTKTISEHDVQQFAAASGDTNPLHLDDEFAEQTRFRGRIAHGTLVGSLISAALARLPGLTIYLSQDLEFHNPVRIGDRLTAECEIVEDLGDEQYRLTTRVLADDEVVIDGEAVVLIDDLPE", "values": [{"measurement": "protein production", "value": "failed"}]}
{"sequence": "MGVNMRAETESRIFSVDEYVRPSNGEPIRSVVLETNDSVVVVWHAHPGQEIASHVHPHGQDTWTVISGEAEYHQGNGIVTHLKAGDIAIAKPGQVHGAMNSGPEPFIFVSVVAPGNAGFALAEK", "values": [{"measurement": "protein production", "value": "not failed"}]}
{"sequence": "MGVPEPRPDWSRRLLGQGEAPDPRFTLANERTFLAWVRTALALLGGAIAIETFAGHVLETPLRLWLVAGLMLLSALLSAGACLRWLRVERALRRRRPLPLPALVPLLALGCLVAVLLAGLVLWPRWHG", "values": [{"measurement": "protein production", "value": "failed"}]}
{"sequence": "MGVQSAVRVHRAISEIGQDAWDACAASTGDPFVSYDFLSILEESGCVAARTGWAPQHLTVLDEADQVAGVMPLYLKSHSQGEYVFDHSWADAYERAGGRYYPKLQCSSPFSPVTGSRLIVRPDIDAAEGRSALMGGALTLCERMGASSLHVTFPVEDQWRWMGERGMLLRQDQQYHWENRGYETFDDFLGALSANRRKTIRRERRDAQEGLEIVALTGADLTEDHWDAFFAFYMDTGGRKWGRPYLNRPFFSLLGQRMADKVLLILARRPGGPFIAGALNLLGRDCLYGRHWGCVEDAPFLHFELCYYQAIEHAIRLGLPRVEAGAQGQHKIARGYLPSAVYSAHWIADPMLREPVARYLERERAAVESDMEMLTEEYSPFREER", "values": [{"measurement": "protein production", "value": "failed"}]}
{"sequence": "MGWCVMAVLVDSETRVLVQGITGREGSFHAKAMLEYGTKVVAGVTPGKGGSEVHGVPVYDSVKEALAEHPEINTSIVFVPAPFAPDAVYEAVDAGIRLVVVITEGIPVHDTMRFVNYARQKGATIIGPNCPGAITPGQAKVGIMPGHIFKEGGVAVVSRSGTLTYEISYMLTRQGIGQSTVIGIGGDPIVGLSFTEALKLFQEDPQTEALVLIGEIGGDMEERAAEMIKKGEFTKPVIAYIAGRTAPPEKRMGHAGAIIMMGTGTYEGKVKALREAGVEVAETPFEVPELVRKALRR", "values": [{"measurement": "protein production", "value": "not failed"}]}
{"sequence": "MGWLFLLLAVASEAFSHVALKATDGLSHLIPNVIVITGHLGAFYFLSQAMKTLPVGIAHASWAGLAIIAVTLISSAFYHQHLDNKIWLGIGFISIGIAIINLSSTPHVH", "values": [{"measurement": "protein production", "value": "failed"}]}
{"sequence": "MGYCQDDQLVNKICDLYEKISKLETLKPCEDVDTLFKQLVSTCIPPNPNIDVTKMSENIQEMRSNLIKICGEAEGYLEHHFSSILTSFEDNPLHHLNLFPYYNNYLKLSKLEFDLLEQNLNGFVPRTVAFIGSGPLPLTSVVLASSHLKDSIFHNFDIDPSANMVAARLVSSDPDLSQRMFFHTVDIMDVTESLKGFDVVFLAALVGMDKKEKVKVVEHLEKHMSPGALLMLRSAHGPRAFLYPIVEPCDLEGFEVLSVYHPTDEVINSIVISRKLGEDANGVVHDHIDQASDLACNCSKIHVIMNKKKSIIEEFAGANEEQLT", "values": [{"measurement": "protein production", "value": "failed"}]}
{"sequence": "MGYGKILVALDRSELAKEVLQQAIALGQKESSQLMVFYCIPVDSQDLSIYPSFYGEAAIGFSQIIKEHLEEQQTEAREWLQSIVQQVQEDGVACEWDVKVGEPGRWIRDMAKNWDADLVVLGRRGLKGLAEVFLGSVSSYVIHHVQCSVLIVQH", "values": [{"measurement": "protein production", "value": "failed"}]}
{"sequence": "MGYKDEIGVIGIDDAPFNKFDKEALIVGTYMRGNKLVDEISFKKIEKDGFDSTEKILKIVKDKHFTKINAIFLDGVTFGGFNIADIVKIYNETKIPVIAVMEKEPDLLKMKSALKKYFFDFPEKIEMLESFPKPEPFENIFIQCIGISFEDACKLIKKTRLRSKIPECLRISHLVGRGFLNME", "values": [{"measurement": "protein production", "value": "failed"}]}
{"sequence": "MGYSGKPHHQLDGEIRESTDGKKWVIAGIPSRSPLKQINLSPGVTVTETEEQDQCPTTPTAVSVRIPRVPPCPAAPKKRKPSLKCSYVTVTRDYFSPPDLETVFIQRASY", "values": [{"measurement": "protein production", "value": "failed"}]}
